± gives the standard deviation of the averaged measurements.
Test system: ATP
Assay: switch fluorescence ratio, 500 uM ATP over buffer (Cy3 cluster intensity, sum of 5 cycles each) (fold (ratio)); higher = stronger signal-on switching upon ATP binding; sequences stand for … in TCGTCGGCAGCGTCAGATGTGTATAAGAGACAGTTTTTTTTTTTTTTTTTTTTTTTTT…TC
Conditions: aptamer strand: ATP DNA aptamer (quencher-CACCTGGGGGAGTATTGCGGAGGAAGG + anchor), 100 nM annealed; ATP concentration: 500 uM
In short: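 After annealing to 100 nM quencher-labelled ATP aptamer, Cy3-labelled switching-strand clusters on a modified Illumina MiSeq flow-cell were imaged in selection buffer. A second image followed after 15 min with 500 uM ATP at 22 °C, and five such buffer/ATP cycles were done, each separated by NaOH stripping and re-annealing. The fluorescence ratio, averaged per switch-domain sequence, is summed target-cycle over summed buffer-cycle Cy3 intensity per cluster, with clusters outside 100-1000 RFU excluded.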
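Also: ATP exposure 15 min at 22 °C before imaging.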

Row | Sequence | switch fluorescence ratio
1 | GGTGAAAAGC | 1.02 ± 0.059
2 | GGAGACCGCT | 1.02 ± 0.034
3 | GGTGTTTTAT | 1.02 ± 0.015
4 | ACTTTGTCGG | 0.995 ± 0.038
5 | GAGGGAGGGT | 1.02 ± 0.032
6 | CTAAGATAGC | 1.03 ± 0.041
7 | TTTTAACGGA | 1.03 ± 0.041
8 | TGGGAGGACG | 0.97 ± 0.038
9 | GCTGTTTGCT | 1.01 ± 0.034
10 | GGACTGGAGC | 0.9905 ± 0.0021
11 | CGTAACCTTA | 1.05 ± 0.15
12 | TTGATGTGCT | 1.01 ± 0.013
13 | TAGAACCGGG | 1.09 ± 0.024
14 | TGGGGGTTTC | 0.975 ± 0.053
15 | TTTATGGATC | 1.01 ± 0.05
16 | TTGCTGGATT | 1 ± 0.033
17 | ACGAGGGAGC | 1.05 ± 0.017
18 | CTCGGATTGG | 1 ± 0.015
19 | CCGTGCACAT | 2.679 ± 0.0035
20 | CCGATGGGCC | 1.22 ± 0.028
21 | GCCATCACGC | 0.9836 ± 0.006
22 | CATAGTTTGG | 1.07 ± 0.034
23 | GGTACCCTGG | 1.03 ± 0.014
24 | GGTTTCTGAA | 0.998 ± 0.02
25 | CCACGCCCGG | 1.15 ± 0.099

Row | Sequence | switch fluorescence ratio
26 | TCCATTAAAA | 0.976 ± 0.036
27 | TTTAAGGTGA | 1.04 ± 0.053
28 | CGAGCCGAGA | 1.003 ± 0.0095
29 | TGGAAAAAAG | 0.9901 ± 0.0015
30 | GGTCATTTTT | 0.995 ± 0.021
31 | ATGTAGGGTT | 1.036 ± 0.0048
32 | GAACCGGTAC | 1.21 ± 0.019
33 | GGTGCAGGGG | 1.11 ± 0.023
34 | GCCCGCTTCG | 1.03 ± 0.024
35 | TTCAAGATTT | 0.974 ± 0.022
36 | CGTGGGCAAG | 0.996 ± 0.021
37 | TTGAGAATT | 1.02 ± 0.051
38 | GGGGGGATTG | 0.99 ± 0.025
39 | GGTTCCTTA | 0.994 ± 0.045
40 | TTCGTTTTAG | 0.996 ± 0.033
41 | AATTATGTTT | 0.995 ± 0.03
42 | CACGGAAGCA | 1.07 ± 0.019
43 | ACAGCGGGTG | 1.087 ± 0.01
44 | AGACGGTATG | 1.02 ± 0.0061
45 | CCGGGGTGTG | 1.08 ± 0.012
46 | TTTCGGGAGT | 0.976 ± 0.016
47 | TCATTAGAGG | 0.9942 ± 0.0067
48 | TTAGTAGTGG | 0.974 ± 0.01
49 | TTACCTCATT | 1.02 ± 0.015
50 | ACGACAGATG | 0.961 ± 0.046

Row | Sequence | switch fluorescence ratio
51 | GCTTTATGTT | 0.9938 ± 0.0015
52 | GGCGGAGGGT | 0.986 ± 0.03
53 | CATGTAGGTG | 1.06 ± 0.048
54 | TTAATGATGG | 1.012 ± 0.0075
55 | CTGTTTGCCT | 0.983 ± 0.021
56 | AGTACGTGCG | 0.9781 ± 0.0081
57 | CTTCATTACT | 1.08 ± 0.017
58 | GCTATATTTG | 1.01 ± 0.013
59 | TATGGGGGGT | 0.976 ± 0.017
60 | CGGGGGTTGT | 0.963 ± 0.036
61 | TAGCTTTCGA | 1.06 ± 0.031
62 | AGAGTCGATT | 1.014 ± 0.0028
63 | TTATGCTTTC | 1.25 ± 0.34
64 | CATCCGGGGG | 1.56 ± 0.73
65 | TGGCGAAGGT | 0.9747 ± 0.0085
66 | TTTGGCCGGT | 1.04 ± 0.056
67 | CTCTATTTGA | 0.977 ± 0.016
68 | ACGTTGCTAA | 1.0246 ± 0.00021
69 | GGATTAGTGT | 0.987 ± 0.032
70 | CATTTTTGTG | 0.9534 ± 0.0061
71 | ATTGTGAAAT | 0.999 ± 0.0025
72 | TGGGATATTA | 0.9995 ± 0.007
73 | TGATTATAGA | 0.983 ± 0.03
74 | CATGATGGGG | 0.96 ± 0.027
75 | TTGGTTATGG | 1 ± 0.039

Row | Sequence | switch fluorescence ratio
76 | TCATTGGGAA | 1.01 ± 0.021
77 | TATAGCATGT | 1.038 ± 0.007
78 | AGACGATTGT | 0.985 ± 0.018
79 | CATGCTATTC | 1.17 ± 0.049
80 | ATACCTCTTG | 0.992 ± 0.022
81 | AATAGGGTCG | 0.975 ± 0.064
82 | AAGGTTGGTT | 0.983 ± 0.068
83 | CAGAGGTAGG | 0.973 ± 0.023
84 | GTTTTTTGAA | 0.9764 ± 0.0021
85 | AGATGGGGCG | 0.955 ± 0.088
86 | AACTTGATAT | 0.9835 ± 0.0019
87 | AAGGGGTGG | 1.02 ± 0.029
88 | GTTATGGGGC | 0.966 ± 0.043
89 | GGTTAATCGT | 0.98228 ± 0.00062
90 | CAGTGCGTGT | 1 ± 0.03
91 | ACGGGCAGAG | 1.02 ± 0.013
92 | CGGGGAGAGG | 0.998 ± 0.036
93 | GACCCGCTAA | 4.18 ± 0.3
94 | GCGGACCGGT | 0.968 ± 0.04
95 | TATCTGTTGT | 0.967 ± 0.033
96 | TAAGGGAGTG | 0.976 ± 0.031
97 | TGCGGGGAAT | 0.9707 ± 0.0068
98 | TTAAAGGAGG | 1.02 ± 0.044
99 | GTGGGAACCT | 1.45 ± 0.29
100 | GGAGACATGT | 1.006 ± 0.0022

Reference: the supplement of paper PMC10126150
